Target: cytochrome c (CytC), recombinant human (human, UniProt P99999 1-105)
Assay: electrochemical aptasensor

Chain of cytochrome c (CytC), recombinant human (P99999 whole entry): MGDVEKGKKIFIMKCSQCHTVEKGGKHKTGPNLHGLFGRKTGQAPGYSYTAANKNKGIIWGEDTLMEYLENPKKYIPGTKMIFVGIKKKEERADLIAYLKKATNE

CCGTGTCTGGGGCCGACCGGCGCATTGGGTACGTTGTTGC (ssDNA, 5' thiol C6 (ThioMC6-D, disulfide reduced); 3' amino modifier (AmMO)) [CytC aptamer]
Kd: 6.19 ± 1.57 ng/mL
